Measured values as given in the DeepSol protein solubility set.

experiment: soluble on expression in E. coli; label from the status in PepcDB or PDB records

Sequence | soluble on expression in E. coli
MAHHHHHHMLHEVNVGTSDIVRGGHGGDEAATPQQPPALSVVEEHIQRIRLELCGQRHPPSGYASAIAIPSTAAGLDRVAVLVDLLDQVRYWAIEEAFTFKDEPSRLAETEAPEAVVACLCSQRPQLVAQALRVVQPMLRHRQTAYETRRVMVDVWAYREQVNSMVPLPEGLDPLLAMLAEFLEQHKGVLPVLVEALSTATAALVQDGTACVGSDNGNDDNLDGGVSLRRRVAPLVVALHETTLVYQMESAMRRHPDAVPLQVEGVSFCAALVDLPWPFEAEVDSEEGTPTSLADILAHSDGVLDVLHGALRRHRQNLCIARGVLHVWRVCAQHPANRVPLLQHGAYAGALQQLRGVLPYAVGVWREIAETVGYFIPLLDALQRRSLALTLRELLLRRPQLEMLELILALLLSLLMVV | not soluble
MLQPKRTKFRKVHKGRNRGIASGTEVSFGTYGLKAVGRCRLTARQIEAARRAMSRAVKRQGKIWIRVFPDKPITEKPLEVRMGKGKGNVEYWVALIQPGKVLYEMDGVSEEVARNAFALAAAKLPVKTTFVTKTVMLEHHHHHH | not soluble
GPGSMTYYRERRKTLTVQGLKDAVQESLAKYLYDNAIFCAERLYALAPTHESLHTVAHCYVTSGDAGTAYRILRAHYPYLLSATPSFATTNSSTSGNGTGVGSNTAADAAARWDCQYLLGVTCGMTQRYMEGESFLEELERQQSSSEVLYWLGVCRRHLRRGYAEEAFAKSAVLDPLNFVAFENHVKMTRTPREEVRCIYTDAAPGVGAEDAVRRSSMSGMGIGGVGGAHRHVKREALRLYLSPFASVTFLQWTYRCKEARALLQHESFPERDSGWAFGALAMAYFHDGDVENSTVEFANMRRVAPWRLADPALVYYSTALWQRKELGTLGSLSQTLINEMPASPITLCVVANNYSLAKESKESLCMLNRAIQVDHDFAYAHTLRGYELLYLDLKSEAVDAFHEAILIDGGHYNAYAGLGELYFRSEDLQKARNYFQQAISINPLPTIMNRYAATYHRRDATRESLNEALRIYESAIRRHPTNLGARHQRAEVLIRLGRFHEAHDELLGMTKECPDEAMLYVTLAKCVHLMGLTGQAVQYYHTAMDLDPRRVGYIKSCLERLAMGKPDVAEANA | not soluble
MSLIRAMQKSDYEAVYKLWCEIKGFGIRSIDDSKENIENFLDRNPNLSVVAVIDEEIVGSILCGHDGRTGGFYHVCVHKDHRKKGIAHEMAKFCLEALKAQKINKIALIAFKNNDLGNEFWKHYGFTLREDANYYDLSLNEYNQTSFNAEGHHHHHH | soluble
MGSDKIHHHHHHMIKNQWYVVLSSRELKKGQLIGVTRFGEKLAFWRDSNGKVHCISDICCHRGASISHGKVLSNGERVMCPFHGFEYDSQGRVRTIPANGRNTPVPENFRVKSYPTYELADFIWIWYGDREPEKPPKYFDDITDELVYTEFKEVWNVHYSRAIENQLDPIHLPFVHYNTIGRGNRTVVDGPIVEWKDDEMFYFYVFNRIDDGTPARKPEEMDPKRKSKVYLEFKFPNIWQNHISEKIRVTAAFTPIDDDHTMIYLRFYVGLTGIKFLDKLIAVLGKPFNKIVLHQDKRVVETQIPKRSELRMGENLIPGDAPILEYRKKREALKSMQQNNRVK | not soluble
TEDSLMPEEEFLRRNKGPVSIKVQVPNMQDKTEWKLNGQGLVFTLPLTDQVSVIKVKIHEATGMPAGKQKLQYEGIFIKDSNSLAYYNMASGAVIHLALKER | soluble
MSLAPALKAEILAQALPYIRKFHGKTIVIKYGGNAMTEEKLKHGFARDVILLKLVGMNPVVVHGGGPQIDDALKKVGKTGTFIQGMRVTDEETMEVVEWVLGGEVQQDIVMLINQYGGQAVGLTGKDGGLIRAKKLKMPDREQPGQFIDIGFVGDIETINPAVVRALQDDAFIPVISPIGFSDDGQAYNINADVVAGKMAEILKAEKLVMMTNIPGVMDKQGNLLTDLSAREIDELFADGTISGGMLPKISSALDAAKSGVNSVHIIDGRIEHSLLLEILTEQAFGTMIRSHEGHHHHHH | not soluble
PKLPTISQFNVTPFLAFISPDYKTHIDPNEVESVFEVPANHILNPNKLYSSKFELKRSSHRVFAIPYRQHFIWGMTAQIIESMQKHIISG | not soluble
MQNAGSLVVLGSINADHILNLQSFPTPGETVTGNHYQVAFGGKGANQAVAAGRSGANIAFIACTGDDSIGESVRQQLATDNIDITPVSVIKGESTGVALIFVNGEGENVIGIHAGANAALSPALVEAQRERIANASALLMQLESPLESVMAAAKIAHQNKTIVALNPAPARELPDELLALVDIITPNETEAEKLTGIRVENDEDAAKAAQVLHEKGIRTVLITLGSRGVWASVNGEGQRVPGFRVQAVDTIAAGDTFNGALITALLEEKPLPEAIRFAHAAAAIAVTRKGAQPSVPWREEIDAFLDRQR | soluble
MQSYTNRICAVCGDTPAKIHYGVLACFGCKGFFRRAVKDGRNKYVCRFEKNCEVTKFERNACRYCRFRKCLLVGMNPDYVRPDREKSKKGKTVLSKKKSVSRSLSYRLADPSDWTSFLSPSSRKQLSEIGKLAETCSTSTNFDGIGNFSLKSLIADRSLARKTGDSEAMDCSNSPRQLNEQFLGIERIVQCVDYIDRFLVMLEEEHCRKFSVEDKSALISDTMIHLLLFESTSRFVAKGAPGLEDLKLSLAQLPICTTHLTQKIADVFETYLRKPPSIIEYSVLKAYIVLSAESTVLSNSLNESLSLARENLSELLFKVIKHSRNKTSISAANSLSTILHFVYESRNLASRIRQSQQPFFVRDSDPKIPFHKILTDIINPEVSDLLLTTANCRKLSTQMGSSLSSVPPVPPPSDTVPLFHFSPPSLSPCQISAPPPPQQQYTDYSQMPSTSSYPANSSPFQSPYRPNSLSSFPKIPLEMTKSIEEFLRPNGMTTDEMNKPLEKNWADGFRLTPVFNKDIVSQFFPELSNINQHHPF | not soluble
MGSDKIHHHHHHLVEKRRVMSNLETNQGRLAAIETFAERCPDCGSLLYRPKGLSKVTGKKMAGVCMNCGYKQPPTEPKNVTPDMEKEARKNRTVGYYLAYSVFSTDAIIAKDFNNFHTDGSLGQQQLKLFAVGLSNKICRNEVVHALIIGDTGVGKSHIANGILIDTQAKTGYRKTCLFIDWNALMQRLKSGMSANAQDVRMKNEKIMHEIGKADVVVIDDLGSERGSDFDRQTADDVFRMREDKATIVTTNLHGQDLNKRYGERTMSRMAKHGQGNSFGVKGILDQRKEALP | not soluble
MMKSIATLISVVLCSFSAWAQTITAAQDPWPPFVMENAQQKGLSVDIVTAAFATQGYTVEFTIMPWSRALNDVKEGKIDILPATWFTQERTAYLTYSDNYLTNQVKFIKKAGDNFEFAGLASLNGKKVGIVRGYGYGDEFMNDPSFFRPESTDLKQNLQKLQAGRIDLAVEDELVAKSIITEAGMNLADFAFTNQAISENPLHVTSGKANPRSEELVAAFNKGLAEIKANGTFDKLLADYGIK | not soluble
KFDGDDPVIPEWTQGGQIIPTMNLKVGDSVYTRVFDQSGENVAYRTELAISNDVLTQAKNWSYALASKINQEQTKLQAGQYSEDKFTPVYGTNPIYLQSNSGLERVEIGYNIETPVPDYSLTVDGLASEYIIGTEPTALDLTLTAEGDLTAELTVYNHHREPLASWTGSIQDGASEQVELTLSKSEPGHHMLVTRIKDTDGNLVDQQTLDFHLKSEEVTPPPSGEYDFVFPEGLSSYTAGTKVLASDGAIYQCKPFPYSGYCVQWSESATQFEPATGSHWEMAWDKLN | not soluble
MKVFEGKPRINSPHITGNYPSTPFIFYIPTSGQRPMQWSAEKLPEGLELDSKTGIISGVMTSKGDYTVTLKAENALGVSVKQLEHHHHHH | not soluble
KFGASQDVVKWQEVTSNLPELSKKLMSSSSEPLSDDEMADLTLALRTRLHYQPEDSTGWLLLGRIALANRDVTTAIDSMKKSYALEPKDPDVMLGYAQALMLSQDEMDQATARSLLGKLMQQDYVDLRVFSLLAFDAFERKDYPAAIKYWGIMQQMIGPDDSRYESLSRSIDHARKQMGEVVSPDKSVAVTINVAPEAQLDPNAVLIVSIHRADGSPMPVAAARYPLGSFPRTVVLDDGNAMMQGQKLSSLEKLIVRVRADSDGNVATRDQDWHGESDVVEFGQPVAVTIDKQYQ | not soluble
MTVEWLAEQLKEHNIQLTETQKQQFQTYYRLLVEWNEKMNLTSITDEHDVYLKHFYDSIAPSFYFDFNQPISICDVGAGAGFPSIPLKIMFPQLKVTIVDSLNKRIQFLNHLASELQLQDVSFIHDRAETFGKGVYRESYDVVTARAVARLSVLSELCLPLVKKGGQFVALKSSKGEEELEEAKFAISVLGGNVTETHTFELPEDAGERQMFIIDKKRQTPKKYPRKPGTPNKTPLLEK | not soluble
MTQLNQRRRGNRLENAIYDTTYTLLSQYGLDQVTFSRVATAAATSRSVLYRYWDSTFDLIFHTIIHQIQKTPIALTTTPLDTGSLRTDLILLAQRFIQQTSTGPFRYFRLLFATALNAQNQRDLTQLVTQIDHANLTLIEPLLTNAQNHGELQIWPNQAAQLVLFQQLRYCDIINQPMNTDQQLTNLIDQVVLPALRASGVANRHFHH | not soluble
MAHHHHHHMHTDDKQAQRYPRTSDAARVHSTLRVGQNTSDKVPYGRLSSQSGPGTPRGDLFPPSNGLSKVEGEETPAAGAWQYPSEPMATPNTRSVQLNGALPVKNEEGETKCSGDAIREEGTKDGGDGVIIGIDAAVEAGVLVANEESGKEDENRESNVNSTPCASGTNETIATATPTLSNATAASVVLTPAVPASTGLRASRRLLDFTGSTNVSNGPRAASRLFDVKPVGGGAQAASQGVGFLRLSKTVPSAASQAVSARMRTSRKNGPTLSATSRGHSSTAHENLPCRNDYTSLRLKEQRRRELYAWNEELRRQDKSDMSADAV | not soluble
SLGSQGSGLEQSSFQWSPSGRRTGSLYCRVGIGFHLQIYPDGKVNGSHEANMLSVLEIFAVSQGIVGIRGVFSNKFLAMSKKGKLHASAKFTDDCKFRERFQENSYNTYASAIHRTEKTGREWYVALNKRGKAKRGCSPRVKPQHISTHFLPRFKQSEQPELSFTVTVPEKEG | soluble
SLNVNFFVTCIGDALKSRMARDSVLLLEKLGCRVNFPEKQGCCGQPAINSGYIKEAIPGMKNLIAALEDNDDPIISPAGSCTYAVKSYPTYLADEPEWASRAEKVAARMQDLTSFIVNTLGVVDVGASLQGRAVYHPSCSLARKLGVKDEPLTLLKNVRGLELLTFAEQDTCCGFGGTFSVKMAEISGEMVKEKVAHLMEVRPEYLIGADVSCLLNISGRLQREGQKVKVMHIAEVLMSR | soluble
MGSDKIHHHHHHMGGLKMKVIILGSGSYSGTPKPLCTCENCTRARINPAFRRTRFSVYIEGGILIDPGPDLHYHLEKLNKEVETILITHAHFDHIFGLPDAQVFKKLTIASNPLGIKVARSLAMLAFNSEAPLGNDWDYVELKFWNEYKVNGVKVIHFPVVHSIEMAGGFLIERKNKTVAITGDTGPEIIRDSEVIDLIKGSDLLISEMTHKESIPKTHLGVNDAIELAKIVKAEQTVFAHISHSNYPQEILEKKVREAKISGIVARDFTIIEI | not soluble
MSLNDSILEPKHRGNVREIAAIDLGSNSFHMIVARIVNGSIQVLSRLKQKVKLAEGLDENAVLNQEAITRGVNCLALFAERLQGFPMENVNVVGTYTLRRAVNNDEFLRQAAKVFPYPINIISGQTEAKTIYAGVCHTQPEKGRKLVIDIGGGSTEMIIGDDFTPLMAESRHMGCVSFATQFFTDGIISPENFQRARQSAVNKIEDLGLEYRKLGWQSVLGSSGTIKTVAQVIATNLDPNGTITAERLNALIEQTLQAKHFTELNINGLNQDRVDVFVPGLAILSAVFDVFHIQQMRYSDGALREGVIYSLEKNFQVADIRASTAEGHHHHHH | soluble
